In this data set the test system is Escherichia coli TOP10. The data set is described as follows: shrunken log2 fold change of peptide-encoding DNA abundance (4.5 h post-induction vs induction); higher = less antimicrobial activity (less host growth inhibition). The note with it: time post-induction: 4.5 h; library: site-saturation at positions 5, 18, 19, 20.
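Note: peptides expressed intracellularly from a pBAD plasmid library in pooled LB shake-flask culture, induced with 0.3% L-arabinose, DNA abundance read by NGS, three biological replicates, DESeq2 with apeglm shrinkage.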

Turning to RRIRERPPRLPRPRPRPAPNPRP, the “shrunken log2 fold change” value was 0.258.

Consider RRIRVRPPRLPRPRPRPDSWPRP, for which the “shrunken log2 fold change” value is -0.0688. On to RRIRTRPPRLPRPRPRPSTQPRP, for which the “shrunken log2 fold change” value was -0.0187. Take RRIRARPPRLPRPRPRPAFQPRP: the “shrunken log2 fold change” value turned out to be 0.174. Regarding RRIRVRPPRLPRPRPRPFVIPRP, the “shrunken log2 fold change” value is -0.477. RRIRNRPPRLPRPRPRPFMDPRP: the “shrunken log2 fold change” value was determined as 0.0237.

In the case of RRIRKRPPRLPRPRPRPVLDPRP, the “shrunken log2 fold change” value came to 0.0689. Next, RRIRYRPPRLPRPRPRPSERPRP: -0.417. On to RRIRERPPRLPRPRPRPQQIPRP, for which the “shrunken log2 fold change” value is -0.384. Take RRIRYRPPRLPRPRPRPEWGPRP: the “shrunken log2 fold change” value is -0.169. Turning to RRIRLRPPRLPRPRPRPPEEPRP, the “shrunken log2 fold change” value turned out to be 0.0505.

For RRIRNRPPRLPRPRPRPCEMPRP, the “shrunken log2 fold change” value was determined as 0.019. On to RRIRCRPPRLPRPRPRPMFDPRP, for which the “shrunken log2 fold change” value is -0.246. For the sequence RRIRIRPPRLPRPRPRPQFGPRP, the “shrunken log2 fold change” value was 1.74.

Regarding RRIRPRPPRLPRPRPRPWCFPRP, the “shrunken log2 fold change” value was -0.295. On to RRIRCRPPRLPRPRPRPLHRPRP, for which the “shrunken log2 fold change” value stood at 0.06. For RRIRVRPPRLPRPRPRPSGLPRP, the “shrunken log2 fold change” value is 0.0687.

For the sequence RRIRTRPPRLPRPRPRPIIHPRP, the “shrunken log2 fold change” value was -0.937. Turning to RRIRPRPPRLPRPRPRPFLSPRP, the “shrunken log2 fold change” value is -0.312. Take RRIRARPPRLPRPRPRPAKTPRP: the “shrunken log2 fold change” value worked out at 0.179. Next, RRIRRRPPRLPRPRPRPNVEPRP: 0.318. In the case of RRIRLRPPRLPRPRPRPWNVPRP, the “shrunken log2 fold change” value was -0.0513. Take RRIRKRPPRLPRPRPRPSCTPRP: the “shrunken log2 fold change” value stood at 0.0868. For RRIRMRPPRLPRPRPRPACIPRP, the “shrunken log2 fold change” value stood at 0.112. For the sequence RRIRKRPPRLPRPRPRPNKCPRP, the “shrunken log2 fold change” value was -0.106. Then RRIRGRPPRLPRPRPRPHECPRP, with 0.504. With RRIRTRPPRLPRPRPRPGDEPRP, the “shrunken log2 fold change” value amounted to 0.195. Take RRIRLRPPRLPRPRPRPRAFPRP: the “shrunken log2 fold change” value is 0.25. For RRIRKRPPRLPRPRPRPICTPRP, the “shrunken log2 fold change” value was -0.0207. For the sequence RRIRNRPPRLPRPRPRPGYSPRP, the “shrunken log2 fold change” value is -0.42. On to RRIRARPPRLPRPRPRPGVYPRP, for which the “shrunken log2 fold change” value is 0.011. Consider RRIRIRPPRLPRPRPRPHADPRP, for which the “shrunken log2 fold change” value was -0.178. RRIRDRPPRLPRPRPRPFMIPRP: the “shrunken log2 fold change” value amounted to 0.0898.

Turning to RRIRWRPPRLPRPRPRPYAIPRP, the “shrunken log2 fold change” value is -0.347.

Consider RRIRPRPPRLPRPRPRPGKHPRP, for which the “shrunken log2 fold change” value was -0.141.

In the case of RRIRDRPPRLPRPRPRPTPFPRP, the “shrunken log2 fold change” value was -0.13. Take RRIRRRPPRLPRPRPRPCEKPRP: the “shrunken log2 fold change” value was -0.0914. For RRIRTRPPRLPRPRPRPSTDPRP, the “shrunken log2 fold change” value amounted to 0.201. Regarding RRIRRRPPRLPRPRPRPAFTPRP, the “shrunken log2 fold change” value worked out at 0.118. On to RRIRCRPPRLPRPRPRPRSWPRP, for which the “shrunken log2 fold change” value was 0.417. On to RRIRFRPPRLPRPRPRPTFAPRP, for which the “shrunken log2 fold change” value was found to be 0.0698. RRIRRRPPRLPRPRPRPEWDPRP: the “shrunken log2 fold change” value was 0.426.

In the case of RRIRCRPPRLPRPRPRPQNYPRP, the “shrunken log2 fold change” value was -0.485. As to RRIRNRPPRLPRPRPRPSEKPRP, the “shrunken log2 fold change” value was -0.0315. Take RRIRSRPPRLPRPRPRPGNIPRP: the “shrunken log2 fold change” value was -0.281. Turning to RRIRHRPPRLPRPRPRPLQCPRP, the “shrunken log2 fold change” value is -0.0439. Turning to RRIRYRPPRLPRPRPRPDLVPRP, the “shrunken log2 fold change” value was -0.0421.

As to RRIRWRPPRLPRPRPRPFDTPRP, the “shrunken log2 fold change” value is -0.113. With RRIRERPPRLPRPRPRPTHVPRP, the “shrunken log2 fold change” value worked out at 0.231. RRIRGRPPRLPRPRPRPQMAPRP: the “shrunken log2 fold change” value turned out to be 0.923. As to RRIRHRPPRLPRPRPRPGKQPRP, the “shrunken log2 fold change” value was -0.173. Next, RRIRTRPPRLPRPRPRPCSTPRP: -0.11; RRIRYRPPRLPRPRPRPDAKPRP: -0.118; RRIRPRPPRLPRPRPRPLEWPRP: -0.00787.

As to RRIRVRPPRLPRPRPRPYLFPRP, the “shrunken log2 fold change” value was determined as 0.0655.

In the case of RRIRYRPPRLPRPRPRPMVMPRP, the “shrunken log2 fold change” value was -0.0337.

For the sequence RRIRGRPPRLPRPRPRPFENPRP, the “shrunken log2 fold change” value stood at 0.0511.

As for RRIRLRPPRLPRPRPRPKKDPRP, the “shrunken log2 fold change” value was 0.0575. With RRIRNRPPRLPRPRPRPEPGPRP, the “shrunken log2 fold change” value amounted to 0.321. Consider RRIRFRPPRLPRPRPRPWYVPRP, for which the “shrunken log2 fold change” value was -0.757. RRIRQRPPRLPRPRPRPRKEPRP: the “shrunken log2 fold change” value is -0.0194. In the case of RRIRMRPPRLPRPRPRPHWDPRP, the “shrunken log2 fold change” value is -0.145. On to RRIRRRPPRLPRPRPRPMWEPRP, for which the “shrunken log2 fold change” value came out at 0.00178. Next, RRIRKRPPRLPRPRPRPNQSPRP: 0.341; RRIRQRPPRLPRPRPRPHPCPRP: -0.0985; RRIRYRPPRLPRPRPRPLPAPRP: -0.165. Consider RRIRTRPPRLPRPRPRPMQEPRP, for which the “shrunken log2 fold change” value was -0.0701. In the case of RRIRMRPPRLPRPRPRPFSEPRP, the “shrunken log2 fold change” value turned out to be 0.273.

Regarding RRIRVRPPRLPRPRPRPEEIPRP, the “shrunken log2 fold change” value was -0.0172. On to RRIRARPPRLPRPRPRPEKVPRP, for which the “shrunken log2 fold change” value turned out to be 0.131.

In the case of RRIRNRPPRLPRPRPRPYWMPRP, the “shrunken log2 fold change” value was -0.26. For RRIRSRPPRLPRPRPRPHQGPRP, the “shrunken log2 fold change” value amounted to 0.0275. Turning to RRIRWRPPRLPRPRPRPTIVPRP, the “shrunken log2 fold change” value is -0.33. As to RRIRTRPPRLPRPRPRPENLPRP, the “shrunken log2 fold change” value was -0.0254. Regarding RRIRFRPPRLPRPRPRPYGGPRP, the “shrunken log2 fold change” value was -0.00865. For RRIRRRPPRLPRPRPRPDKWPRP, the “shrunken log2 fold change” value amounted to 0.107. As to RRIRYRPPRLPRPRPRPLWIPRP, the “shrunken log2 fold change” value is -0.103.

For RRIRHRPPRLPRPRPRPEAGPRP, the “shrunken log2 fold change” value is 0.264. Next, RRIRDRPPRLPRPRPRPWWNPRP: -0.0921. With RRIRYRPPRLPRPRPRPMVFPRP, the “shrunken log2 fold change” value is -0.00776. Take RRIRFRPPRLPRPRPRPDVRPRP: the “shrunken log2 fold change” value was 0.0165. For the sequence RRIRMRPPRLPRPRPRPPNRPRP, the “shrunken log2 fold change” value is 1.08. Regarding RRIRSRPPRLPRPRPRPWCKPRP, the “shrunken log2 fold change” value is 0.149. Then RRIRWRPPRLPRPRPRPFYYPRP, with -0.138; and RRIRMRPPRLPRPRPRPAMRPRP, with 1.14; and RRIRDRPPRLPRPRPRPIFSPRP, with -0.182.

For RRIRKRPPRLPRPRPRPWCHPRP, the “shrunken log2 fold change” value was -0.15. As for RRIRYRPPRLPRPRPRPCIHPRP, the “shrunken log2 fold change” value is -0.0152. Regarding RRIRDRPPRLPRPRPRPPCWPRP, the “shrunken log2 fold change” value is 0.407. Consider RRIRKRPPRLPRPRPRPVRVPRP, for which the “shrunken log2 fold change” value worked out at 0.591. For RRIRCRPPRLPRPRPRPTPTPRP, the “shrunken log2 fold change” value stood at 0.982.

The values above are taken from the supplement of paper PMC9112550, “Optimization of the antimicrobial peptide Bac7 by deep mutational scanning” (BMC Biology, 2022).
